# According to the supplement of paper PMC12764529:
# ± gives the half width of the 95% confidence interval.
# Test: folding stability dG unfold from trypsin proteolysis; higher = more stable
# Outline: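 Bayesian fitting of sequencing counts gave K50 for each design. Unfolding free energy followed by setting this against a sequence-predicted unfolded-state K50 and a shared folded-state K50, either per protease or with trypsin and chymotrypsin combined. The designs, under 80 residues and lacking cysteine, were digested in a PA-tagged cDNA display format at 11 threefold-diluted protease concentrations and without protease, and only those with AlphaFold2 dimer inter-PAE above 15 were kept.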
row,Sequence,folding stability dG unfold
1,SAGMTITTTTPAEAAALAEELAKKNPVLNVTITVVDPETGTVTTIPFAVPAPLPRPYFDPETGEVTLEGSAG [r5_870_TrMRF],1.1 ± 0.033 kcal/mol
2,SLSEEELKKKLEELKKKLKPPKPKVKKVKVKIKNKETNEEIEEEVEIVETPDTVYIYNKKTGKLFKFKIKSA [r9_548_TrROS_Hall],0.935 ± 0.11 kcal/mol
3,SASPDAPVEVVVSLRELRERIEAEHPGRPVTPEDVAALAREELEAAGRPLEDLRVEAVDEATGTVRLVASAG [r14_303_JUSTAS],-0.251 ± 0.054 kcal/mol
4,SAGGSSVTTTVSEETLPDGLRLLTTTTTTTTVPGKPDLRITTVTTTALDPVTGETTAVGTSTTVVAPSAGGS [r8_65_JUSTAS],0.311 ± 0.038 kcal/mol
5,SAGGSAGGSAGEVTVPAVVPPDAVPEVVEAVERLGARAEVEWDPETGLYRVNITFDGEVGSAGGSAGGSAGG [r11_1043_TrMRF],-0.00326 ± 0.067 kcal/mol
6,SMTLTETKVLTTETLSGEEFAKRSGVPVEEIRKSGVKYNVTVTPVEVTYYDPETGKTYKRTSTTVTITPESA [r9_382_JUSTAS],0.354 ± 0.083 kcal/mol
7,SAGGMPPVKVPVKVTISMKDPKTGKTFTVPVEKVATSEEDLEEIKKEVEELAKELKEKGYKEIEIKIESAGG [r13_360_JUSTAS],2.14 ± 0.061 kcal/mol
8,SAGDNYREVEYTLKLKNPKGERKLKVKVYYPKGGMFIKIEWPDNGRKIDIPFKSPEDAEETIKDLLDKLSAG [r5_480_TrROS],1.71 ± 0.059 kcal/mol
9,SAGGSAGGSAGMMKVRIRVDGKEIEIEVPPGMTVDEIAERLKKEFGKDIEIEVEEVKPEPSAGGSAGGSAGG [r11_805_TrROS_Hall],3.72 ± 0.23 kcal/mol
10,SAGGMLEVTEEPLELGDRPVTRTTITLPDGTVVTVTTEAGTGAMTVTYPDGTTKTVTSEEDALAALLSAGGS [r8_168_JUSTAS],2.66 ± 0.11 kcal/mol
11,SAGGSAGGMSPDAKPIGEKTDESPGPEKVTTTTLKSPDPSLTYTVTTTTVGSTTTTTTTAVPVLSAGGSAGG [r6_923_JUSTAS],0.439 ± 0.051 kcal/mol
12,SAGGGIEREVAPDEVVEIPIVRIEGDVAREETIEIRLPAGARIEPSGDKIRLWFPEEGKVLEIPLTELSAGG [r13_275_TrMRF],-0.0241 ± 0.065 kcal/mol
13,SAGGSAGGSMVTIPTGTEEEVEKVIAELEKKGLKPKKVEKEGNKVTVEFPDGTKVELIIEPGKSAGGSAGGS [r20_93_JUSTAS],1.06 ± 0.058 kcal/mol
14,SAGWFISIKYKDPPTGRKRKISIPIPPGDPWLKELGFPSLDGLAKWLAPEMREEGHDVKDVKVEIMPPKSAG [r5_722_TrROS],3.38 ± 0.19 kcal/mol
15,SAGGSAGGPEYQMIPVKNVEIDEFDPNDGNVTIKFKGNGQEIKLPPDGIQSIEISPDQGWIYIRSAGGSAGG [r6_315_TrROS],-0.318 ± 0.093 kcal/mol
16,SAGGSMITFTVTPDATVEFPDGVTVTLIPGEGKWVATAGEKEIEAPYTPLPDDTYVVTLELPEGIAASAGGS [r16_245_JUSTAS],0.337 ± 0.046 kcal/mol

row,Sequence,folding stability dG unfold
1,SAGGGSMFSTIYDPNSNNSIEAPLLSIREEDGRPTIEYQLPDGTRVTRPLSELGAFTLTGGAGSLTLPSAGG [r13_211_JUSTAS],0.83 ± 0.052 kcal/mol
2,SFIRKDPDGTYVIMGRMPPNMPIEEFLENLPGFKIKDVEYQPDPENGYWYFTLVITPRGKVKIDWVPMGDSA [r9_238_TrROS],2 ± 0.03 kcal/mol
3,SAGGSAGGSAGAKVKVFKVRAEVKLTRTADGELVAEVTEVEIEEVEVEVRPPPPPPLPPASAGGSAGGSAGG [r11_381_TrROS_Hall],1.67 ± 0.24 kcal/mol
4,SAGGSAGGSPNTIEIWIQIPPGDPEKVEEIAKKLRDEGFKDIKVDEVHRNPDDSYYVEIKITVSAGGSAGGS [r12_91_TrROS],1.55 ± 0.12 kcal/mol
5,SAGMKKKITVKVKVKTEEEAEKLAEELEKELGLKVTVEKNEETGVYTITVEVSPEAVEALKKAGVEIESAGG [r19_306_TrROS_Hall],1.93 ± 0.33 kcal/mol
6,SAGGSAGGSAPKEVVVLDLKISPVPDPRYFPAEFTVYIPENGKPFPVTAVFDPEGGEVTIGSAGGSAGGSAG [r3_1_TrMRF],2.7 ± 0.071 kcal/mol
7,SAGSVTVTETKTEGDKETITMTRPETGETVEEKITKKNGKVKVTKTYYSPSGVKLGSSEKVLSESELLLSAG [r5_308_JUSTAS],-0.0129 ± 0.18 kcal/mol
8,MKKVKVTITITVPEEDKEKVKELIEKLKEAVPNVKVTSVEFDEKTGKITIVVEMTEEELEELKKALKEALES [r1_443_TrROS_Hall],2.78 ± 0.11 kcal/mol
9,SSPMTVEELLERHPNLLVVRLPDGTVYLFDPEKETLYTVTPGTGEVTVTPLSLEELLALLPAAGHEVLPLSA [r9_721_JUSTAS],1.74 ± 0.1 kcal/mol
10,SAGGSAGGSGTSTKINILLPVKPGETVKLKVEVNLNSKKVLFYVDVKKNPVGNYLSATFTVTGSAGGSAGGS [r12_136_TrMRF],2.75 ± 0.3 kcal/mol
11,SAGGSAGGSAMKIVEWNEETGELTIELPDGTKITLKVENGEITEVKVEPLPPVPPDLPELKSAGGSAGGSAG [r3_406_TrROS_Hall],0.537 ± 0.15 kcal/mol
12,SAGGSAGGSAKPLTVEEIIKKLNLPPNVEIVDVKVDYGKTENKPIIVLVLKTKDKPYLPVFASAGGSAGGSA [r18_354_TrMRF],1.25 ± 0.097 kcal/mol
13,SAGGMIEIEYNPDQGYFRITVWPMNPKNGKPKSKEIPIPFEGDPEEALDKVKDLIDDHPGYHVDIEPYSAGG [r13_284_TrROS],0.657 ± 0.068 kcal/mol
14,SAGGSAGGSAGMVIERPDDKVLVILGYDPEKGKVYVAVYDPKTGEVRFKEFDNLEDEIKDSAGGSAGGSAGG [r17_300_TrMRF],2.16 ± 0.11 kcal/mol
15,SAGGLKDILKELGFPIKSVTVQPMPMPNGMPMRTVSITFENPNGPKFEIEVMVMPNGEVMIDIEWVKPSAGG [r13_818_TrROS],2.23 ± 0.092 kcal/mol
16,SAGGMPTTSSSAVKLDGGSDSVTTTTLPDGSRVVYIVSSDGKVYKATVTGGTTTWTEVKTVPPAELSSAGGS [r16_48_JUSTAS],1.53 ± 0.031 kcal/mol
